Experimental data published in patent US20220041738A1 (SAITAMA MEDICAL UNIVERSITY, published 2022).

T1: Mouse ALK2-His&Fc (Sino Biological Inc., Cat. #50297-M03H) (mouse, UniProt P37172 21-123)
T1 construct: Bought product; also called mALK2-Fc; not shown: His tag and Fc of the bought product
T1 sequence: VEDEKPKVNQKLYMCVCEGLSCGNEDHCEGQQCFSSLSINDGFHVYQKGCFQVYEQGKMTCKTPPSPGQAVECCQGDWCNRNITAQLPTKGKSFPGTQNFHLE

T2: human ALK2-G328W on cells (human, UniProt Q04771 21-509)
T2 sequence: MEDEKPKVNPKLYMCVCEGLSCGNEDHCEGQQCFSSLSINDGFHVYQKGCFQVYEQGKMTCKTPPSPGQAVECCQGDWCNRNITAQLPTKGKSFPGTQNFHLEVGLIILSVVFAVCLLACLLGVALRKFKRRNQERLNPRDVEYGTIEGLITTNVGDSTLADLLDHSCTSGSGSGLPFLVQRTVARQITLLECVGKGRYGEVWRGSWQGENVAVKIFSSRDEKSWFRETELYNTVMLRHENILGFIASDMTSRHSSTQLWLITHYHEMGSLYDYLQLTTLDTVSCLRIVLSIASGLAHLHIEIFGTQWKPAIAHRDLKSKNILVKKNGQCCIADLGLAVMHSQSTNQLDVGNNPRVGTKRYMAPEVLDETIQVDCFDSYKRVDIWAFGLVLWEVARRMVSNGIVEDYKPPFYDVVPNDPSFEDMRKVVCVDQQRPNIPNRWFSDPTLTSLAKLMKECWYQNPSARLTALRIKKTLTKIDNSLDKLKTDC

T3: human ALK2-G356D on cells (human, UniProt Q04771 21-509)
T3 sequence: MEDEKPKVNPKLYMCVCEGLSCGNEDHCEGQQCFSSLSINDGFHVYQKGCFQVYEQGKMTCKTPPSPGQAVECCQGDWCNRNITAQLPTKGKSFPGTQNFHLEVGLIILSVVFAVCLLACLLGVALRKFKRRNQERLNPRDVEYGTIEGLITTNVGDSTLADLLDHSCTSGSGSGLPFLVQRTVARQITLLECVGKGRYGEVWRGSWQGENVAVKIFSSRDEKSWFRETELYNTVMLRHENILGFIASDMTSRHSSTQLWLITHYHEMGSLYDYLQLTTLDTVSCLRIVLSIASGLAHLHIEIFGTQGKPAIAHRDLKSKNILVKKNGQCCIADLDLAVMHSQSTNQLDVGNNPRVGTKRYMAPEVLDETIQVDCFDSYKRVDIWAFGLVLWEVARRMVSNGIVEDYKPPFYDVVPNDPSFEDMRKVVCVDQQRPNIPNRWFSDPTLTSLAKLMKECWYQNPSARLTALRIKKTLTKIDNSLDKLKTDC

T4: human ALK2-G328R on cells (human, UniProt Q04771 21-509)
T4 sequence: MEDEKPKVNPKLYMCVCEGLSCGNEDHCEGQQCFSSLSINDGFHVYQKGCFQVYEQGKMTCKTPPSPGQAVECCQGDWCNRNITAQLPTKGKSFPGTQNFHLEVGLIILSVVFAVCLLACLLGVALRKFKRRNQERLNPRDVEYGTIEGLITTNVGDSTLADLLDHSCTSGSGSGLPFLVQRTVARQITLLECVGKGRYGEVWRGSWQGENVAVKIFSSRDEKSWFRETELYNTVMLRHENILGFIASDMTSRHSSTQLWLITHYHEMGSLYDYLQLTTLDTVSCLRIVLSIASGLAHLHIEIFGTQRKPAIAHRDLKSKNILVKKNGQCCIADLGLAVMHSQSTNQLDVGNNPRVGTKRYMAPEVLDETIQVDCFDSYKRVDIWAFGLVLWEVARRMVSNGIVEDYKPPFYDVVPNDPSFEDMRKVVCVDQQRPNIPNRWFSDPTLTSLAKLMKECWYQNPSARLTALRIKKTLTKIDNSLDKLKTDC


What was measured:
[1] = biological target: T1, Mouse ALK2-His&Fc (Sino Biological …); assay: ELISA, antigen coated at 1 µg/ml, hybridoma culture supernatant, ALP anti-rat IgG, O.D.492
Description: One week after the cell fusion, using each culture supernatant, clones recognizing mouse ALK2-His&Fc used as the antigen were selected by the enzyme-linked immunosorbent assay (ELISA), and clones recognizing only human Fc (Sino Biological Inc.) were excluded. ELISA was performed as follows.
First, the antigen diluted to 1 μg/ml with PBS was immobilized onto a 96-well ELISA plate (NUNC, Cat. #442404) for 2 hours at room temperature or overnight at 4° C. The immobilized solution was removed, and the plate was blocked with a 0.5% skim milk solution dissolved in PBS for 30 minutes at room temperature. Next, the above-described culture supernatant of hybridomas was added, and the plate was left for 1 hour at room temperature. After the plate was washed, an ALP-labeled anti-rat IgG antibody (SBA, Inc.) diluted with 0.5% skim milk to 1:2500 was added, and the plate was further left for 1 hour at room temperature. After the plate was washed, a phenyl phosphate substrate was reacted for 20 minutes at room temperature, and then absorbance at a wavelength of 492 nm was measured.

[2] = biological target: T2, human ALK2-G328W on cells; assay: immunofluorescence (legend of FIG. 4)
Description: (§1) Mouse C2C12 cells were seeded into a 96-well plate (Greiner Bio-One) at 0.5×10³ cells/well, and cultured in 15% FBS-containing DMEM medium overnight under the conditions of 5% CO₂ at 37° C. On the following day, the C2C12 cells were transfected with each of a wild-type human ALK2 cDNA integrated into pcDEF3; pcDEF3/human ALK2-L196P, pcDEF3/human ALK2-P197_F198delinsL, pcDEF3/human ALK2-R202I, pcDEF3/human ALK2-R206H, pcDEF3/human ALK2-Q207E, pcDEF3/human ALK2-R258S, pcDEF3/human ALK2-G325A, pcDEF3/human ALK2-G328E, pcDEF3/human ALK2-G328R, pcDEF3/human ALK2-G328W, pcDEF3/human ALK2-G356D, and pcDEF3/human ALK2-R375P, which are variants identified in FOP; and pcDEF3 as a control, using Lipofectamine 2000 (Invitrogen), and further cultured overnight.
(§2) The C2C12 cells were fixed with 10% neutral formalin (Nacalai Tesque, Japan) for 20 minutes at room temperature, and then blocked with 10% goat normal serum for 30 minutes. After the blocking agent was removed, purified IgG diluted to 10 μg/mL with the blocking agent was added, and the cells were left for 1 hour at room temperature. After the cells were washed with PBS three times, Goat Alexa 594-conjugated anti-rat IgG (Invitrogen) diluted to 1:1000 with the blocking agent was added, and the cells were left for 1 hour at room temperature. After the cells were washed with PBS three times, the cells were fixed with 10% neutral formalin for 15 minutes at room temperature, and nuclear-stained with DAPI (LifeTechnologies). Fluorescent signals were analyzed with a fluorescence microscope BZ-9000 (Keyence).

[3] = biological target: T3, human ALK2-G356D on cells; assay: immunofluorescence (legend of FIG. 4)
Description: as §1, §2

[4] = biological target: T4, human ALK2-G328R on cells; assay: immunofluorescence (legend of FIG. 4)
Description: as §1, §2

binding result [1] | binding result [2] | binding result [3] | binding result [4] | Binder
binds | – | – | – | rat anti-ALK2 monoclonal antibody A2-25C (antibody, V domains shown, Rat monoclonal IgG from a hybridoma; also called 25C11) VH: EVQLVESGGGLVQPGGSLKLSCAASGFTFSYYAMSWVCQAPTKGLEWVASISRGGDNTYYRDTVKGRFTTSRDNAKNTLYLQMDSLRSEDTATYYCARLNYNNYFDYWGQGVMVTVSS VL: DIQMTQSPASLSASLEEIVTITCQASQDIGNWLSWYQQKPGKSPQLLIYGATSLADGVPSRFSGSRSGTQYSLKISRLRVEDIGIYYCLQAYSAPFTFGSGTKLEIKR
binds | binds | binds | binds | rat anti-ALK2 monoclonal antibody A2-15A (antibody, V domains shown, Rat monoclonal IgG from a hybridoma; also called 15A6) VH: EVQLVESGGGLVQPGRSLKLSCAASGFTFSHYYMAWVRQAPTKGLEWVASITNSGGSINYRDSVKGRFTISRDNAKSTLYLQMDSLRSEDTATYYCTREGGENYGGYPPFAYWGQGTLVTVSS VL: DIVLTQSPALAVSLGQRATISCRANQGVSLSRYNLMHWYQQKPGQKPKLLIYRSSNLASGIPARFSGSGSGTDFTLTINPVQADDIATYYCQQSRESPFTFGAGTKLELKR
binds | – | – | – | rat anti-ALK2 monoclonal antibody A2-27D (antibody, V domains shown, Rat monoclonal IgG from a hybridoma; also called 27D11) VH: EVQLVESGGGLVQPGRSLKLSCLASGSTFSNYGMKWIRQAPGKGLEWVASISRSSTYIYYADTVKGRFTISRDNARNTLYLQMTSLRSEDTALYYCAAAISTPFYWYFDFWGPGTVVTVSS VL: EIVLTQSPTTMAASPGEKVTLNCLASSSVSYMTWYQQKSGASPKLWIYGTSNLASGVPNRFSGSGSGTSYSLAISSMEAEDVATYYCLHLTSYPPYTFGAGTKLELKR
binds | binds | binds | binds | rat anti-ALK2 monoclonal antibody A2-11E (antibody, V domains shown, Rat monoclonal IgG from a hybridoma; also called 11E2) VH: EVQLVETGGGLVQPGRSLKLSCVASGFTFSNYYMYWIRQAPGKGLEWISSINTDGGSTYYPDSVKGRFAISRDNAENTVYLQMNSLRSEDTATYYCAKSTPNIPLAYWGQGTLVTVSS VL: DIQMTQSPSLLSASVGDRVTLSCKASQNIYKYLNWFQQKLGEAPKLLIYYSNSLQTGIPSRFSGSGSGTDFTLTISSLQPEDVAIYFCFQYSSGPTFGPGTKLELKR
